From paper PMC8421139 (Nucleic Acids Research, 2021) come the findings set out here.

This test has as its target Flag-DHX9 recombinant protein (UniProt Q08211 1-1270). Kind of test: pull-down.

Sequence of Flag-DHX9 recombinant protein (Q08211 whole entry): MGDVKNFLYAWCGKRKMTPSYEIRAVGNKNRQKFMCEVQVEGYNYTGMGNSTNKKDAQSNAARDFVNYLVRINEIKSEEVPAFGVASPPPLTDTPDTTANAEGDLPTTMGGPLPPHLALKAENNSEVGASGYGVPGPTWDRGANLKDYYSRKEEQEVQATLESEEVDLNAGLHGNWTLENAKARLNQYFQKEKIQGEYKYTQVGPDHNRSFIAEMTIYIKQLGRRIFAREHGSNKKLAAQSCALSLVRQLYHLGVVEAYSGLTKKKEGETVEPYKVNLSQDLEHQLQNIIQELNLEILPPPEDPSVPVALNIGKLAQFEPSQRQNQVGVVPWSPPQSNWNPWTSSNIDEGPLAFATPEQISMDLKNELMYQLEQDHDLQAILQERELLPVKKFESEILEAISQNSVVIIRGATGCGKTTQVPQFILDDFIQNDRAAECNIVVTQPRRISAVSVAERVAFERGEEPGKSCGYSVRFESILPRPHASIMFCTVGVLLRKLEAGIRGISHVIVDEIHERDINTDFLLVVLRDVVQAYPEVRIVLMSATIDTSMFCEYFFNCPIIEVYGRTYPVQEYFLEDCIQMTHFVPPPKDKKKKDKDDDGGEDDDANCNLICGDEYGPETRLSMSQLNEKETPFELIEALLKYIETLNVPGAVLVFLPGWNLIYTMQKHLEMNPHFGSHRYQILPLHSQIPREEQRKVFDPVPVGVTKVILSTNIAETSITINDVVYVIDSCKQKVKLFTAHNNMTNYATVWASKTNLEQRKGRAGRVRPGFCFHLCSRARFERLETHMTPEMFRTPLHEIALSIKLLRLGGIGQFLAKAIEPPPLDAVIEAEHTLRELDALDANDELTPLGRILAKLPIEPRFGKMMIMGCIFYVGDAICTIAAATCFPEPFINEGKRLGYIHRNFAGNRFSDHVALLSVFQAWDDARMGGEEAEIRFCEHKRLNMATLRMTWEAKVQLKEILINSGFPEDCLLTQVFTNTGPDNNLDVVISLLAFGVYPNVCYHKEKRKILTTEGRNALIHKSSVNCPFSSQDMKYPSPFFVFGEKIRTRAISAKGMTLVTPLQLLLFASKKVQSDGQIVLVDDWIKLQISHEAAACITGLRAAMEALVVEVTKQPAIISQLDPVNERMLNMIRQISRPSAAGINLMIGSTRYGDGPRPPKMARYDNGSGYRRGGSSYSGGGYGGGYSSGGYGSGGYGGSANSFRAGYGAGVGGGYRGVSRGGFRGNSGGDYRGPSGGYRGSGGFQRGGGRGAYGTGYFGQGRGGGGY

B1: GST-TDRD3 (natural protein)
chain: MAQVAGAALSQAGWYLSDEGIEACTSSPDKVNVNDIILIALNTDLRTIGKKFLPSDINSGKVEKLEGPCVLQIQKIRNVAAPKDNEESQAAPRMLRLQMTDGHISCTAVEFSYMSKISLNTPPGTKVKLSGIVDIKNGFLLLNDSNTTVLGGEVEHLIEKWELQRSLSKHNRSNIGTEGGPPPFVPFGQKCVSHVQVDSRELDRRKTLQVTMPVKPTNDNDEFEKQRTAAIAEVAKSKETKTFGGGGGGARSNLNMNAAGNRNREVLQKEKSTKSEGKHEGVYRELVDEKALKHITEMGFSKEASRQALMDNGNNLEAALNVLLTSNKQKPVMGPPLRGRGKGRGRIRSEDEEDLGNARPSAPSTLFDFLESKMGTLNVEEPKSQPQQLHQGQYRSSNTEQNGVKDNNHLRHPPRNDTRQPRNEKPPRFQRDSQNSKSVLEGSGLPRNRGSERPSTSSVSEVWAEDRIKCDRPYSRYDRTKDTSYPLGSQHSDGAFKKRDNSMQSRSGKGPSFAEAKENPLPQGSVDYNNQKRGKRESQTSIPDYFYDRKSQTINNEAFSGIKIEKHFNVNTDYQNPVRSNSFIGVPNGEVEMPLKGRRIGPIKPAGPVTAVPCDDKIFYNSGPKRRSGPIKPEKILESSIPMEYAKMWKPGDECFALYWEDNKFYRAEVEALHSSGMTAVVKFIDYGNYEEVLLSNIKPIQTEAWEEEGTYDQTLEFRRGGDGQPRRSTRPTQQFYQPPRARN
For B1, the binding result was “binds”.
